Assay results as given in paper PMC10746227.

B1: WalK-LgBIT (native WalK) [S. aureus] / WalR-SmBIT (native WalR) [S. aureus] (parent)
chain 1: MARKVVVVDDEKPIADILEFNLKKEGYDVYCAYDGNDAVDLIYEEEPDIVLLDIMLPGRDGMEVCREVRKKYEMPIIMLTAKDSEIDKVLGLELGADDYVTKPFSTRELIARVKANLRRHYSQPAQDTGNVTNEITIKDIVIYPDAYSIKKRGEDIELTHREFELFHYLSKHMGQVMTREHLLQTVWGYDYFGDVRTVDVTIRRLREKIEDDPSHPEYIVTRRGVGYFLQQHE
chain 2: MKWLKQLQSLHTKLVIVYVLLIIIGMQIIGLYFTNNLEKELLDNFKKNITQYAKQLEISIEKVYDEKGSVNAQKDIQNLLSEYANRQEIGEIRFIDKDQIIIATTKQSNRSLINQKANDSSVQKALSLGQSNDHLILKDYGGGKDRVWVYNIPVKVDKKVIGNIYIESKINDVYNQLNNINQIFIVGTAISLLITVILGFFIARTITKPITDMRNQTVEMSRGNYTQRVKIYGNDEIGELALAFNNLSKRVQEAQANTESEKRRLDSVITHMSDGIIATDRRGRIRIVNDMALKMLGMAKEDIIGYYMLSVLSLEDEFKLEEIQENNDSFLLDLNEEEGLIARVNFSTIVQETGFVTGYIAVLHDVTEQQQVERERREFVANVSHELRTPLTSMNSYIEALEEGAWKDEELAPQFLSVTREETERMIRLVNDLLQLSKMDNESDQINKEIIDFNMFINKIINRHEMSAKDTTFIRDIPKKTIFTEFDPDKMTQVFDNVITNAMKYSRGDKRVEFHVKQNPLYNRMTIRIKDNGIGIPINKVDKIFDRFYRVDKARTRKMGGTGLGLAISKEIVEAHNGRIWANSVEGQGTSIFITLPCEVIEDGDWDE

Variants of: B1
Experiment: split luciferase (SmBIT/LgBIT) interaction assay in S. aureus
Conditions: with WalR-SmBIT (native WalR) [S. aureus]; maximum of the RLU curve, mutant peak at about 165 min, Wt peak at about 120 min; growth in LB in NRS384 Wt; sub-panel labelled G223D; parent: 8e+03; read off a plot

| Variant | response |
| --- | --- |
| chain 2 G223D | 19000 RLU |

Same assay, conditions: with WalK-LgBIT (native WalK) [S. aureus]; maximum of the RLU curve, mutant peak at about 140 min, Wt peak at about 125 min; growth in LB in NRS384 Wt; sub-panel labelled D53E; parent: 8e+03; read off a plot

| Variant | response |
| --- | --- |
| chain 1 D53E | 150000 RLU |

Same assay, conditions: with WalK-LgBIT (native WalK) [S. aureus]; maximum of the RLU curve, mutant peak at about 140 min, Wt peak at about 125 min; growth in LB in NRS384 Wt; sub-panel labelled D53A; parent: 8.5e+03; read off a plot

| Variant | response |
| --- | --- |
| chain 1 D53A | 17000 RLU |

Same assay, conditions: with WalR-SmBIT (native WalR) [S. aureus]; maximum of the RLU curve, mutant peak at about 170 min, Wt peak at about 120 min; growth in LB in NRS384 Wt; sub-panel labelled H385A; parent: 8e+03; read off a plot

| Variant | response |
| --- | --- |
| chain 2 H385A | 20000 RLU |

Same assay, conditions: with WalR-SmBIT (native WalR) [S. aureus]; maximum of the RLU curve, mutant peak at about 125 min, Wt peak at about 120 min; growth in LB in NRS384 Wt; sub-panel labelled T389A; parent: 8e+03; read off a plot

| Variant | response |
| --- | --- |
| chain 2 T389A | 60000 RLU |

Same assay, conditions: with WalR-SmBIT (native WalR) [S. aureus]; maximum of the RLU curve, mutant peak at about 110 min, Wt peak at about 130 min; growth in LB in NRS384 Wt; sub-panel labelled Y32C; parent: 1.8e+04; read off a plot

| Variant | response |
| --- | --- |
| chain 2 Y32C | 55000 RLU |

Same assay, conditions: with WalK-LgBIT (native WalK) [S. aureus]; maximum of the RLU curve, mutant peak at about 170 min, Wt peak at about 120 min; growth in LB in NRS384 Wt; sub-panel labelled D53A/T101A; parent: 8e+03; read off a plot

| Variant | response |
| --- | --- |
| chain 1 D53A T101A | 8000 RLU |
